We go through nine molecules from US20130315910A1 (Xencor, published 2013).

By Kd is commonly meant the equilibrium constant for the complex coming apart. Higher therefore signals weaker binding.

Assay [1] deals with T1, cynoFcγRIIb (Macaca fascicularis, UniProt A0A140HDP4).
T1 construct: extracellular region, C-terminal His- and GST-tag; also called cynomolgus monkey FcγRIIb
T1 sequence (receptor extracellular region): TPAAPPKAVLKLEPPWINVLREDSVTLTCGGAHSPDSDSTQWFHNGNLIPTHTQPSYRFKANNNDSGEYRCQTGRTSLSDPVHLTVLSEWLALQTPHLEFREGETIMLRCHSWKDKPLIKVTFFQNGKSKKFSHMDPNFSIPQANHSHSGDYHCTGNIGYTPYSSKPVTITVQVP
As to the kind of experiment: SPR. On the technique in general: In SPR one partner is held on a chip, and binding of the other changes the refractive index at the surface.

Assay [2] addresses T2, human FcγRIIIa (158V), His- and GST-tagged (human, UniProt P08637 17-208).
T2 construct: also called V158 FcγRIIIa; VIIIa; not shown: 6xHis and GST tags of the pTT5 vector
In words: SPR.

The target of assay [3] is T3, human FcγRIIb receptor protein (R&D Systems) (human, UniProt P31994 46-217).
T3 construct: Bought protein injected over captured antibody in Biacore; also called CD32b
T3 sequence (looked up): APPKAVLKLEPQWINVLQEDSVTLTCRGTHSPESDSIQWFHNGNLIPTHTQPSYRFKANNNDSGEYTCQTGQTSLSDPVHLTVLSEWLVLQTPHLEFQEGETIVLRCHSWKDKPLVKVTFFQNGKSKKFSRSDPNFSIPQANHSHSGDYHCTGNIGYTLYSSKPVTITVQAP
As to the kind of experiment: SPR.

Assay [4] addresses T4, human FcγRI receptor protein (R&D Systems) (human, UniProt P12314 16-288).
T4 construct: also called soluble FcγRI; solFcγRI
In words: SPR.

For assay [5], the target named is T5, human FcγRIIa (131R), His- and GST-tagged (human, UniProt P12318 34-217).
T5 construct: Expressed in HEK293T cells, purified by nickel chromatography; also called R131 FcγRIIa; not shown: 6xHis and GST tags of the pTT5 vector
T5 sequence (looked up): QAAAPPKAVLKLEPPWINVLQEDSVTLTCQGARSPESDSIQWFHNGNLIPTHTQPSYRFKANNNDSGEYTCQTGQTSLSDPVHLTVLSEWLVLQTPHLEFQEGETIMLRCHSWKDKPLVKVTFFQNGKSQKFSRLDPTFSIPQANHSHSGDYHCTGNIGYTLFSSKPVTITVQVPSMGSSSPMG
As to the kind of experiment: SPR.

For assay [6], the target named is T6, human FcγRIIa (131H), His- and GST-tagged (human, UniProt P12318 34-217).
T6 construct: also called H131 FcγRIIa; HIIa; not shown: 6xHis and GST tags of the pTT5 vector
T6 sequence (looked up): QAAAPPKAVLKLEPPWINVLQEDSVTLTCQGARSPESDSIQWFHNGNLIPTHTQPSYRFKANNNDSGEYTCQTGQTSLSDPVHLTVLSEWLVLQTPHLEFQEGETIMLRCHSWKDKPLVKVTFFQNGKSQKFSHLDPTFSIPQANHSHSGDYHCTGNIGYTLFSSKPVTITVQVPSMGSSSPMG
As to the kind of experiment: SPR.

The target in assay [7] is T7, mFcγRIIb (Mus musculus, UniProt P08101).
T7 construct: extracellular region, C-terminal His- and GST-tag; also called mouse FcγRII
T7 sequence (receptor extracellular region, looked up): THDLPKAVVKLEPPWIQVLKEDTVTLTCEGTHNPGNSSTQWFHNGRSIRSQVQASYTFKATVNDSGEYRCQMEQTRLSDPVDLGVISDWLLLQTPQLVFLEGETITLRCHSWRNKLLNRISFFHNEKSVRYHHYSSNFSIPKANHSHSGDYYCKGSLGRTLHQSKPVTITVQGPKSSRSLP
As to the kind of experiment: SPR, off-rate.

The target in assay [8] is T8, mFcγRIV.
T8 construct: also called mouse FcγRIV; not shown: C-terminal His and GST tags (named only on our card)
T8 chain: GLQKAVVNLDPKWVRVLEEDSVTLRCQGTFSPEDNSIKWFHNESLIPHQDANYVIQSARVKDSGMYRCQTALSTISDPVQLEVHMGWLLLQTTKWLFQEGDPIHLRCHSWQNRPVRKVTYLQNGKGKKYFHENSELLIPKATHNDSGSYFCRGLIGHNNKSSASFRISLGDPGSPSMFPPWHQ
In words: SPR, off-rate.

In assay [9] the target is T9, cynoFcγRIIIa (Macaca fascicularis, UniProt Q8SPW2).
T9 construct: extracellular region, C-terminal His- and GST-tag; also called cynomolgus monkey FcγRIIIa
T9 sequence (Q8SPW2 17-208): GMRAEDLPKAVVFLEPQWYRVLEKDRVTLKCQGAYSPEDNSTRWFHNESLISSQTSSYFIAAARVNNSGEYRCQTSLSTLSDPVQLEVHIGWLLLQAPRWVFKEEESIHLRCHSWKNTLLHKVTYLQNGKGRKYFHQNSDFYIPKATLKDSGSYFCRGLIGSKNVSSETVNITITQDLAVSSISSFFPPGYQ
As to the kind of experiment: SPR, off-rate.

The target of assay [10] is T1, cynoFcγRIIb. As to the kind of experiment: SPR, off-rate.
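Throughout, for Fold vs WT IgG1 (off-rate): fold improvement over WT IgG1 so higher means slower dissociation than WT.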

T4 sequence (P12314 16-288 limits assumed): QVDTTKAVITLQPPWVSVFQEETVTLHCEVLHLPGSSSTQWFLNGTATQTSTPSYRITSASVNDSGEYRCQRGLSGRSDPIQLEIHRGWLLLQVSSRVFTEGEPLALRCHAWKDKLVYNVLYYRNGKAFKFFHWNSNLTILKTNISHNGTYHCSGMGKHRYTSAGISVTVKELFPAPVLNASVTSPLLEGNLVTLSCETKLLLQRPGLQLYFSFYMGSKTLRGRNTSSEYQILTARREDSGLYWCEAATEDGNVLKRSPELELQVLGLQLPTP
T2 sequence (P08637 17-208 F176V): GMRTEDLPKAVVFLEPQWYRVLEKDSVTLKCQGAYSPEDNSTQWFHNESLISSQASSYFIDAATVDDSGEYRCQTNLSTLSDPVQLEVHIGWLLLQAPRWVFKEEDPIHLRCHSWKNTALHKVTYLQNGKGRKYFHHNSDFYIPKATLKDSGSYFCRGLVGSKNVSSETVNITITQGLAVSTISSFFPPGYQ

B1: G236N/S267E (antibody, human IgG1, kappa)
heavy: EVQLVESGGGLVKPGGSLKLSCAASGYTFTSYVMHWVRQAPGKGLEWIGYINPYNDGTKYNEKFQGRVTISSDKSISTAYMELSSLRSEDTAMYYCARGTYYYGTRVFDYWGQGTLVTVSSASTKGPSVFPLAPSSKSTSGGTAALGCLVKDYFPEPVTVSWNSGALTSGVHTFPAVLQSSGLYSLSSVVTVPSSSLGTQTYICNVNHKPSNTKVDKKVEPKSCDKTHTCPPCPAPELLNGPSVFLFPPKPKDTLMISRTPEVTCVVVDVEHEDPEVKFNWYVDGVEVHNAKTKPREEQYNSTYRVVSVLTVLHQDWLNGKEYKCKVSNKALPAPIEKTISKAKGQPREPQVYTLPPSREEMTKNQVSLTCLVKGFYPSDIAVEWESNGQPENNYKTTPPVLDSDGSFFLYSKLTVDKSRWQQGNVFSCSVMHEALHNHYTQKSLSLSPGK
light: DIVMTQSPATLSLSPGERATLSCRSSKSLQNVNGNTYLYWFQQKPGQSPQLLIYRMSNLNSGVPDRFSGSGSGTEFTLTISSLEPEDFAVYYCMQHLEYPITFGAGTKLEIKRTVAAPSVFIFPPSDEQLKSGTASVVCLLNNFYPREAKVQWKVDNALQSGNSQESVTEQDSKDSTYSLSSTLTLSKADYEKHKVYACEVTHQGLSSPVTKSFNRGEC
notes: HuAM4G7 anti-CD19 IgG1 (m1) with these Fc substitutions, EU index; copies: 2 + 2
Regarding B1, the “Fold vs WT IgG1 (off-rate)” value in [1] is 0.587 fold. Further, the binding result in assay [2], in assay [6], in assay [7], in assay [8] and in [9] was “no binding” each time. Besides, the “Fold vs WT IgG1” value in [3] was 19.8 fold; in assay [4] it was 0.0355 fold; in assay [5] it was 3.27 fold. Also, the dissociation constant Kd was found to be 0.0742 µM in [3], 0.00927 µM in [4] and 0.263 µM in assay [5].

B2: G237E (antibody, human IgG1, kappa)
heavy: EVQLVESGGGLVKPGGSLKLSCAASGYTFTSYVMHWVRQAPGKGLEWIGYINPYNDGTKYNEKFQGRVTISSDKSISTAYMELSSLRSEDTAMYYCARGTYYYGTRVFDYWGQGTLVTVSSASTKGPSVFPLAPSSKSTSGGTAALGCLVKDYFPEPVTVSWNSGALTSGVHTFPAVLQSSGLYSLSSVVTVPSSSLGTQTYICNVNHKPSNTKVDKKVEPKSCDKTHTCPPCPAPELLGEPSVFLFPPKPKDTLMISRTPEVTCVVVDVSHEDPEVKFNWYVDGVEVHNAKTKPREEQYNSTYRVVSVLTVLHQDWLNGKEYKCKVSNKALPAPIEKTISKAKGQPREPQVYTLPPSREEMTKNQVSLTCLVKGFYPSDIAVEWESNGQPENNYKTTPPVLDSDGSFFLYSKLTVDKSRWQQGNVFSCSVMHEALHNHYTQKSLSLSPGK
light: DIVMTQSPATLSLSPGERATLSCRSSKSLQNVNGNTYLYWFQQKPGQSPQLLIYRMSNLNSGVPDRFSGSGSGTEFTLTISSLEPEDFAVYYCMQHLEYPITFGAGTKLEIKRTVAAPSVFIFPPSDEQLKSGTASVVCLLNNFYPREAKVQWKVDNALQSGNSQESVTEQDSKDSTYSLSSTLTLSKADYEKHKVYACEVTHQGLSSPVTKSFNRGEC
notes: HuAM4G7 anti-CD19 IgG1 (m1) with this Fc substitution, EU index; copies: 2 + 2
For B2, the “Fold vs WT IgG1” value in assay [3] worked out at 0.0147 fold; in [5], 0.00859 fold. Further, the dissociation constant Kd in assay [3] and in assay [5] was 100 µM throughout. For the same molecule, the binding result in assay [10], in assay [7], in assay [8] and in [9] was “no binding” throughout.

B3: G236P (antibody, human IgG1, kappa)
heavy: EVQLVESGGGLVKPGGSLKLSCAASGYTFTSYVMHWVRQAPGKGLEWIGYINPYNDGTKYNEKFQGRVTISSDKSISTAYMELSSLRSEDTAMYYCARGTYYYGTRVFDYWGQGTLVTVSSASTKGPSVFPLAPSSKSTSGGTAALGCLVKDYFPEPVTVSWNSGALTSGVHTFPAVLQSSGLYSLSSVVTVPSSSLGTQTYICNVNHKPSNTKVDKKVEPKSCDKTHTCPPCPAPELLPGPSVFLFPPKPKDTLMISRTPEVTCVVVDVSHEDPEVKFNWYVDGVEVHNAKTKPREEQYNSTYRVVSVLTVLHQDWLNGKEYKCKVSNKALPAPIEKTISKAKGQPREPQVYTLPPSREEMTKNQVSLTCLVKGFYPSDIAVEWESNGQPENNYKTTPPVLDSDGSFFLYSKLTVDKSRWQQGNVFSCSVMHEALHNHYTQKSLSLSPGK
light: DIVMTQSPATLSLSPGERATLSCRSSKSLQNVNGNTYLYWFQQKPGQSPQLLIYRMSNLNSGVPDRFSGSGSGTEFTLTISSLEPEDFAVYYCMQHLEYPITFGAGTKLEIKRTVAAPSVFIFPPSDEQLKSGTASVVCLLNNFYPREAKVQWKVDNALQSGNSQESVTEQDSKDSTYSLSSTLTLSKADYEKHKVYACEVTHQGLSSPVTKSFNRGEC
notes: as for B2
In the case of B3, the “Fold vs WT IgG1” value was 0.147 fold in [3] and 0.0859 fold in assay [5]. Besides, the equilibrium dissociation constant (Kd) in [3] and in assay [5] was 10 µM each time. In addition, the binding result in assay [10], in assay [7], in assay [8] and in assay [9] was “no binding” each time.

B4: L234K (antibody, human IgG1, kappa)
heavy: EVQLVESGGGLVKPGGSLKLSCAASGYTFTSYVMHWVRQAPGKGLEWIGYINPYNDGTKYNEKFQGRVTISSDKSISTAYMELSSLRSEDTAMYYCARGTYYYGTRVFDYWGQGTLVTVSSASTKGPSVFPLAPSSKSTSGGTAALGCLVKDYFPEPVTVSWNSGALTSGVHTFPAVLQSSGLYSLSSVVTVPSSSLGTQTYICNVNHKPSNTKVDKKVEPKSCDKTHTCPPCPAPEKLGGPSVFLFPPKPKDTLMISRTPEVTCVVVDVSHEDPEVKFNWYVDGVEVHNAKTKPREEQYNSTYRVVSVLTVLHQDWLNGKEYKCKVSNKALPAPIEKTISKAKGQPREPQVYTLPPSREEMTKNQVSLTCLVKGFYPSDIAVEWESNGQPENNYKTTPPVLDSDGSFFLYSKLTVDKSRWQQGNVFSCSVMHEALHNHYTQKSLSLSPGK
light: DIVMTQSPATLSLSPGERATLSCRSSKSLQNVNGNTYLYWFQQKPGQSPQLLIYRMSNLNSGVPDRFSGSGSGTEFTLTISSLEPEDFAVYYCMQHLEYPITFGAGTKLEIKRTVAAPSVFIFPPSDEQLKSGTASVVCLLNNFYPREAKVQWKVDNALQSGNSQESVTEQDSKDSTYSLSSTLTLSKADYEKHKVYACEVTHQGLSSPVTKSFNRGEC
notes: as for B2
As to B4, the figures for the “Fold vs WT IgG1” value in assay [3] and in [5] were 0.0147 fold and 0.00859 fold, respectively. The equilibrium dissociation constant (Kd) in assay [3] and in assay [5] was 100 µM in each case. The binding result in assay [10], in assay [7], in assay [8] and in assay [9] was “no binding” throughout.

B5: G237S (antibody, human IgG1, kappa)
heavy: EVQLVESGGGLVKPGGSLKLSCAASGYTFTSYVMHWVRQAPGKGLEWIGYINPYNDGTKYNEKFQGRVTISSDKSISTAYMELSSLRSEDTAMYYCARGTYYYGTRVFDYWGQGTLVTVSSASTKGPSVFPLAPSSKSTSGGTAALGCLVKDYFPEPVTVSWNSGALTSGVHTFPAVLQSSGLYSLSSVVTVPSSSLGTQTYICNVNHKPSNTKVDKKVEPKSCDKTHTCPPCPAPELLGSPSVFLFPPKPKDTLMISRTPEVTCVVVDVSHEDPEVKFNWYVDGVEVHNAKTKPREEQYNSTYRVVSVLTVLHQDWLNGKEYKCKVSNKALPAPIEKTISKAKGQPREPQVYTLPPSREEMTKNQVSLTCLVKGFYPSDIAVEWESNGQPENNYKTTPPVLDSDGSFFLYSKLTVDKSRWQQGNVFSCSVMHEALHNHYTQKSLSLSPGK
light: DIVMTQSPATLSLSPGERATLSCRSSKSLQNVNGNTYLYWFQQKPGQSPQLLIYRMSNLNSGVPDRFSGSGSGTEFTLTISSLEPEDFAVYYCMQHLEYPITFGAGTKLEIKRTVAAPSVFIFPPSDEQLKSGTASVVCLLNNFYPREAKVQWKVDNALQSGNSQESVTEQDSKDSTYSLSSTLTLSKADYEKHKVYACEVTHQGLSSPVTKSFNRGEC
notes: as for B2
B5: the “Fold vs WT IgG1” value was found to be 0.147 fold in assay [3] and 0.081 fold in assay [5]. The Kd in [3] worked out at 10 µM; in assay [5], 10.6 µM. Also, the binding result in [10], in assay [7], in assay [8] and in assay [9] was “no binding” each time.

B6: G236R (antibody, human IgG1, kappa)
heavy: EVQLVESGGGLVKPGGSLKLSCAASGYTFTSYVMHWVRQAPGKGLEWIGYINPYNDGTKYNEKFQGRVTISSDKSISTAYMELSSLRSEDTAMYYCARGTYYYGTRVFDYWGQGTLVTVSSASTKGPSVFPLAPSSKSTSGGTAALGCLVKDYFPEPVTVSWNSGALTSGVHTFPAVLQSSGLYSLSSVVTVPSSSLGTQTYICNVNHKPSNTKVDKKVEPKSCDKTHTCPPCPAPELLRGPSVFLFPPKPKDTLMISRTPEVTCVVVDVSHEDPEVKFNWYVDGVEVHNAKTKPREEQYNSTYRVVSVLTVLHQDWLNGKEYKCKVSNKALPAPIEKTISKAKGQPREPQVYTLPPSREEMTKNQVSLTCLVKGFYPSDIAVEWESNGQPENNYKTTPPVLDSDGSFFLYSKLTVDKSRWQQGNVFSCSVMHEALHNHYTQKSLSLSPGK
light: DIVMTQSPATLSLSPGERATLSCRSSKSLQNVNGNTYLYWFQQKPGQSPQLLIYRMSNLNSGVPDRFSGSGSGTEFTLTISSLEPEDFAVYYCMQHLEYPITFGAGTKLEIKRTVAAPSVFIFPPSDEQLKSGTASVVCLLNNFYPREAKVQWKVDNALQSGNSQESVTEQDSKDSTYSLSSTLTLSKADYEKHKVYACEVTHQGLSSPVTKSFNRGEC
notes: as for B2
Consider B6, for which the “Fold vs WT IgG1” value in assay [3] worked out at 0.0147 fold; in [5], 0.00859 fold. Besides, the Kd in [3] and in assay [5] was 100 µM in each case. The binding result in assay [10], in [7], in assay [8] and in assay [9] was “no binding” in each case.

B7: G237H (antibody, human IgG1, kappa)
heavy: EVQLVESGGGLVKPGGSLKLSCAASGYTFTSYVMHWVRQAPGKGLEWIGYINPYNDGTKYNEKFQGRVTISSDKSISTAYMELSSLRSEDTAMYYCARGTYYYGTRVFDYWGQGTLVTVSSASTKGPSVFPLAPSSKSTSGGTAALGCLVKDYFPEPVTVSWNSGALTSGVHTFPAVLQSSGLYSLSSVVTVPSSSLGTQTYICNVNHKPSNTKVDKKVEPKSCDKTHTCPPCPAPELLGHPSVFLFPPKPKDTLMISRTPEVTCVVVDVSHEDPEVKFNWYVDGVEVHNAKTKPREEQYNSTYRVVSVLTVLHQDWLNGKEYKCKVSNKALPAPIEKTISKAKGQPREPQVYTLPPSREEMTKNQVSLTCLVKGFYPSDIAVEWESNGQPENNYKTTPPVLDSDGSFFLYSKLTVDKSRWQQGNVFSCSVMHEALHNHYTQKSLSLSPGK
light: DIVMTQSPATLSLSPGERATLSCRSSKSLQNVNGNTYLYWFQQKPGQSPQLLIYRMSNLNSGVPDRFSGSGSGTEFTLTISSLEPEDFAVYYCMQHLEYPITFGAGTKLEIKRTVAAPSVFIFPPSDEQLKSGTASVVCLLNNFYPREAKVQWKVDNALQSGNSQESVTEQDSKDSTYSLSSTLTLSKADYEKHKVYACEVTHQGLSSPVTKSFNRGEC
notes: as for B2
As to B7, the binding result in assay [3], in assay [5], in [10], in [7], in assay [8] and in assay [9] was “no binding” throughout.

B8: G236V (antibody, human IgG1, kappa)
heavy: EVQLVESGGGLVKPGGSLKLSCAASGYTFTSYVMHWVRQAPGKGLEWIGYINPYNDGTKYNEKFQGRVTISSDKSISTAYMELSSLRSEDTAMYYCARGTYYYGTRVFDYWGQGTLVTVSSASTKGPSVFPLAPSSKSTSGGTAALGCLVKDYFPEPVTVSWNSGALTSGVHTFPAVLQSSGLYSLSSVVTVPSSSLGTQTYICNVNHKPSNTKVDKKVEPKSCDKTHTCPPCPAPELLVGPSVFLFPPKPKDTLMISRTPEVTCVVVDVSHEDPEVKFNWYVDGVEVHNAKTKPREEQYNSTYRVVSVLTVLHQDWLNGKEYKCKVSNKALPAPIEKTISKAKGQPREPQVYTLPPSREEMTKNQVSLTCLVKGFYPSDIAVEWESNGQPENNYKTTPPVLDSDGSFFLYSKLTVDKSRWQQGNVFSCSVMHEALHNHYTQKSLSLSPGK
light: DIVMTQSPATLSLSPGERATLSCRSSKSLQNVNGNTYLYWFQQKPGQSPQLLIYRMSNLNSGVPDRFSGSGSGTEFTLTISSLEPEDFAVYYCMQHLEYPITFGAGTKLEIKRTVAAPSVFIFPPSDEQLKSGTASVVCLLNNFYPREAKVQWKVDNALQSGNSQESVTEQDSKDSTYSLSSTLTLSKADYEKHKVYACEVTHQGLSSPVTKSFNRGEC
notes: as for B2
Regarding B8, the “Fold vs WT IgG1 (off-rate)” value in assay [1] stood at 0.703 fold. The “Fold vs WT IgG1” value is 0.0147 fold in [3] and 0.106 fold in assay [5]. Further, the dissociation constant (Kd) is 100 µM in [3] and 8.08 µM in assay [5]. Also, the binding result in [7], in [8] and in [9] was “no binding” throughout.

B9: G237K (antibody, human IgG1, kappa)
heavy: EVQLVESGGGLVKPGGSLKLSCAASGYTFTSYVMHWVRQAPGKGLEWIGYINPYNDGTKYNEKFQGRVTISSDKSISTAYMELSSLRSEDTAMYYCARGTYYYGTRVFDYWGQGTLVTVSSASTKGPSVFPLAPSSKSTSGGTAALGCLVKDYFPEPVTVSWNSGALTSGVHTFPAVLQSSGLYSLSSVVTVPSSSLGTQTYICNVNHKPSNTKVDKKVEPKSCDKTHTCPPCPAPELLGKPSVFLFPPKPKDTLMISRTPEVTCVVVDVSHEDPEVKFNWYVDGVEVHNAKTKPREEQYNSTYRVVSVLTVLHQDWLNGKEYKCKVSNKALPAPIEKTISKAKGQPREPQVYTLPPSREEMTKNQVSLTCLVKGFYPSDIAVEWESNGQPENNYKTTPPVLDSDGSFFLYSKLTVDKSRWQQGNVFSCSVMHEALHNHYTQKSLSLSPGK
light: DIVMTQSPATLSLSPGERATLSCRSSKSLQNVNGNTYLYWFQQKPGQSPQLLIYRMSNLNSGVPDRFSGSGSGTEFTLTISSLEPEDFAVYYCMQHLEYPITFGAGTKLEIKRTVAAPSVFIFPPSDEQLKSGTASVVCLLNNFYPREAKVQWKVDNALQSGNSQESVTEQDSKDSTYSLSSTLTLSKADYEKHKVYACEVTHQGLSSPVTKSFNRGEC
notes: as for B2
Turning to B9, the “Fold vs WT IgG1” value was 0.0147 fold in assay [3] and 0.00859 fold in assay [5]. The Kd in [3] and in assay [5] was 100 µM in each case. The binding result in [10], in assay [7], in assay [8] and in [9] was “no binding” throughout.
